Biological target: vimentin (Rat2) (UniProt P31000)
Experiment: co-immunoprecipitation with Flag-Beclin 1
Conditions: reference: wild-type Flag-Beclin 1; sites S234,S295

binding against the reference: weaker
Substance: Beclin 1 (from UniProt Q14457) S234A/S295A (AA)

From paper PMC3507442
